Experimental data as given in article PMC9976899, “Identification of a novel 5-aminomethyl-2-thiouridine methyltransferase in tRNA modification” (Nucleic Acids Research, 2023).

Molecular target: the molecule itself
Experiment: SEC; oligomeric state of saMnmM in solution examined by size exclusion chromatography; conditions not given

B1: Staphylococcus aureus MnmM (5-aminomethyl-2-thiouridine methyltransferase, formerly YtqB) (enzyme)
chain: MKLERILPFSKTLIKQHITPESIVVDATCGNGNDTLFLAEQVPEGHVYGFDIQDLALENTRDKVKDFNHVSLIKDGHENIEHHINDAHKGHIDAAIFNLGYLPKGDKSIVTKPDTTIQAINSLLSLMSIEGIIVLVIYHGHSEGQIEKHALLDYLSTLDQKHAQVLQYQFLNQRNHAPFICAIEKIS
notes: MnmM (YtqB) of Staphylococcus aureus, UniProt Q2FXG9; gene codon-optimized and synthesized; Truncated constructs are stated only for the plant orthologs; A C-terminal His-tag (pLATE31) is stated expressly only for the B. subtilis gene; also called saMnmM; saYtqB; source: E. coli BL21(DE3), purified (HisTrap HP, SEC Superdex 75)
stoichiometry N: 2
